The record followed here is patent publication US20230016112A1 (IBIO, published 2023).

The chains are these.
T1: full-length CD25 (human, UniProt P01589 22-186, limits assumed)
T1 construct: The assays used soluble 'full-length CD25'; also called Hu CD25; IL-2 receptor alpha chain
T1 chain: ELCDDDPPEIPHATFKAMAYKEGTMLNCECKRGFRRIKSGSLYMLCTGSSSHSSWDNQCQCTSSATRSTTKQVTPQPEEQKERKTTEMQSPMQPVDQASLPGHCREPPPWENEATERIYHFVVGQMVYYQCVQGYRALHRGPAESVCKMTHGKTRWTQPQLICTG

B1: YU398-A11 (antibody)
scFv: PGRSLRLSCAASGFTFSSYGMHWVRQAPGKGLEWVAVISYDGSNKYYADSVKGRFTISRDNSKNTLYLQMNSLRAEDTAVYYCAKGQGDGMDVWGQGTTVTVSSYELTQPPSASGTPGQRVTISCSGSSSNVGSRTVSWFQQLPGTAPKLLIYSNNLRPSGVPDRFSGSKSGTSASLAISGLQSEDEADYYCAAWDDSLIGHVFGTGTKVTVV
notes: Tested as full-length human IgG1
B2: YU397-D01 (antibody)
scFv: PSGTLSLTCAVSGGSISSSNWWSWVRQPPGKGLEWIGEIYHSGSTNYNPSLKSRVTISVDKSKNQFSLKLSSVTAADTAVYYCARARGGRYFDYWGQGTLVTVSSDIVLTQSPSFLSASVGDRVTITCRASQGISTYLAWYQQKPGTAPKVLMYAASTLHSGVPSRFSGSGSGTEFTLTISSLQPEDFAIYYCQQLNGYPTTFGGGTRVEIK
notes: as for B1
B3: YU401-G07 (antibody)
scFv: LGRSLRLSCAASGFTFSSYGMHWVRQAPGKGLEWVAVISYDGSNKYYADSVKGRFTISRDNSKNTLYLQMNSLRAEDTAVYYCAKGDVNYGMDVWGQGTTVTVSSSYVLTQPPSVSVAPGQTARISCGGSNIGSKTVNWYRKKAGQAPVLVVYDGRDRPSGIPERFSGSNSGNAATLIISRVEVGDEADYYCQVWDTSGDLHWAFGGGTKLTVL
notes: as for B1
B4: YU392-H04 (antibody)
scFv: QVQLQESGPGLVKPSGTLSLTCAVSGGSISSSNWWSWVRQPPGKGLEWIGEIYHSGSTNYNPSLKSRVTISVDKSKNQFSLKLSSVTAADTAVYYCARVNYGDYDWYFDLWGRGTLVTVSSQPVLTQPPSASGTPGQRVTISCSGSSSNIGSNFVTWYQQLPGTAPKLLIYSNNQRPSGVSDRFSASKSGTSASLAISRLQSQDEAEYYCAAWDDSLRSYVFGSGTKVTVV
notes: as for B1
B5: YU401-B01 (antibody)
scFv: PGSSVKVSCKASGGTFSSYAISWVRQAPGQGLEWMGGIIPIFGTANYAQKFQGRVTITADESTSTAYMELSSLRSEDTAVYYCAREMYYYYGMDVWGQGTTVTVSSDIVMTQSPSSLSASVGDRVTITCRASQSIITYLNWYQQKPGKVPKLLIYAASSLQSGVPSRFSGSGSGTDFTLTISSLQPEDFATYYCQQSYSTPPTFGQGTKLEIK
notes: as for B1
B6: YU392-G12 (antibody)
scFv: QVQLQESGSGLVKPSQTLSLTCAVSGGSISSGGYSWSWIRQPPGKGLEWIGYIYHSGSTYYNPSLKSRVTISVDRSKNQFSLKLSSVTAADTAVYYCARAGYYYGMDVWGQGTTVTVSSDIVMTQTPSSLSASVGDRVAITCQASRNIWSYVNWYQQKPGEAPRLLIYGASTLQRGVPSRFSGSGSGTGFTLTINSLQPEDFATYFCQQSHSTPITFGGGTRVDIK
notes: as for B1
B7: YU392-B11 (antibody)
scFv: PGATVKISCKVSGYTFTDYYMHWVQQAPGKGLEWMGLVDPEDGETIYAEKFQGRVTITADTSTDTAYMELSSLRSEDTAVYYCAVEGGRAPGTYYYDSSGLAYWGQGTLVTVSSQAGLTQPPSASGTPGQRVTISCSGSSSNIGSNYVYWYQQLPGTAPKLLIYSNNQRPSGVPDRFSGSKSGTSASLAISGLRSEDEADYYCATWDDSLSGVVFGGGTKLTVL
notes: as for B1
B8: YU400-D09 (antibody)
scFv: PGSSVKVSCKASGGTFSSYAISWVRQAPGQGLEWMGGIIPIFGTANYAQKFQGRVTITADESTSTAYMELSSLRSEDTAVYYCARDFNPFSITIFEMDVWGQGTTVTVSSQSVLTQPPSVSAAPGQKVTISCSGSSSNIGNNYVSWYQQLPGTAPKLLIYDNNKRPSGIPDRFSGSKSGTSATLGITGLQTGDEADYYCGTWDSSLSALVFGGGTKLTVL
notes: as for B1
B9: YU400-B07 (antibody)
scFv: PGRSLRLSCAASGFTFSSYGMHWVRQAPGKGLEWVAVISYDGSNKYYADSVKGRFTISRDNSKNTLYLQMNSLRAEDTAVYYCAKGDVNYGMDVWGQGTTVTVSSSYVLTQPPSVSVAPGKTARITCGGNNIGSKSVHWYQQKPGQAPVLVVYDDTDRPSGIPERFSGSNSGNTATLTISRVEAGDEADYYCQVWDSSSDLLWVFGGGTKLAVL
notes: as for B1
B10: YU392-E06 (antibody)
scFv: QLQLQESGPGLVKPSGTLSLTCAVSGGSISSSNWWSWVRQPPGKGLEWIGEIYHSGSTNYNPSLKSRVTISVDKSKNQFSLKLSSVTAADTAVYYCARERTHYYYGMDIWGQGTTVTVSSQSVLTQPPSTSGTPGQRVTISCSGSSSNIGSNTVNWYHQLPGTAPRLLIYSNNQRPSGVPDRFSGSKSGTSASLALSGLQSEDEGDYYCAAWDDSLNGYVFGTGTKVTVL
notes: as for B1
B11: YU389-A03 (antibody)
scFv: PSQTLSLTCTVSGGSISSGGYYWSWIRQHPGKGLEWIGYIYYSGSTYYNPSLKSRVTISVDTSKNQFSLKLSSVTAADTAVYYCARGNLWSGYYFWGQGTLVTVSSQSVLTQPPSVSAAPGQKVTISCSGSSSNIGNNFVSWYQQVPGTAPKLLTYDSTKRPAGIPDRFSGSKSGTSATLEIAGLQTGDEADYYCGSWDTNLSGYVFGTGTKVTVL
notes: as for B1
B12: YU392-A09 (antibody)
scFv: PGATVKISCKVSGYTFTDYYMHWVQQAPGKGLEWMGLVDPEDGETIYAEKFQGRVTITADTSTDTAYMELSSLRSEDTAVYYCATEGRYGMDVWGQGTTVTVSSQAVLTQPPSVSGTPGQRVTISCSGNNFNIGNNLVYWYQQLPGTAPKLLIYANDERPSGVPDRFSGSKSGTSASLAISGLRSEDDADYYCATWDDSLSGVVFGGGTKLTAL
notes: as for B1
B13: YU392-G09 (antibody)
scFv: QVQLVQSGAEVKKPGSSVKVSCKASGGTFSSYAISWVRQAPGQGLEWMGGIIPIFGTANYAQKFQGRVTITADESTSTAYMELSSLRSEDTAVYYCARDGAGNYDILTGDRSEDYYYYYGMDVWGQGTTVTVSSSYELTQPPSASGAPGQRVSISCSGGYSNIGSNTVNWYQQLPGAAPKFLIYSDNQRPSGVPDRFSGSKSGTSASLAISGLQSEDEADYYCATWDDSLNGPVFGGGTKLTVL
notes: as for B1
B14: YU403-G05 (antibody)
scFv: PSGDLSLTCDVSGGSISRSNWWIWVRQPPGKGLEWIGEIYHTGSTNYNPSLKRRVTISVDKSKNQFSLNLSSVTAADTAVYYCARGKGSYAFDIWGLGTMVTVSSVLTQPHSVSESPGKTVTISCTGSGGNIARNYVQWYQHRPGRAPSTVIYEDDRRPSGVPDRFSGSTDISSNSASLTISGLKTEDEADYYCQSYDGNNHMVFGGGTRVTVL
notes: as for B1
B15: YU390-B12 (antibody)
scFv: PGRSLRLSCAASGFTFSSYGMHWVRQAPGKGLEWVAVISYDGSNKYYADSVKGRFTISRDNSKNTLYLQMNSLRAEDTAVYYCAKELLEGAFDIWGQGTMVTVSSSYVLTQPPSLSVAPGQTARITCGGDNIETKSVHWYQQRPGQAPVLVVYDDDDRPSGIPERFSGSNSGNTATLTISRVEAGDEADYYCQVWDSSSGHREVFGGGTKLTVL
notes: as for B1
B16: YU392-H02 (antibody)
scFv: QLQLQESGPGLVNLSQTLSLTCTVSGGSISSGGYYWSWIRQHPGKGLEWIGYIYYSGSTYYNPSLKSRVTISVDTSKNQFSLKLSSVTAADTAVYYCARDSSSGPYGMDVWGQGTTVTVSSQSVLTQPPSVSVAPGQTARVTCGGSNIGSQSVHWYQQKPGQAPVLVVYDDYDRPSGIPERFSGSNSGNTATLTITRVDAGDEADYYCQIWDSSSAHVVFGGGTKLTVL
notes: as for B1
B17: YU392-E05 (antibody)
scFv: QVQLQESGPGLVKPSGTLSLTCTVSGGSISSSNWWSWVRQPPGKGLEWIGEIYHSGSTNYNPSLKSRVTISVDKSKNQFSLKLSSVTAADTAVYYCARGVIAAAGTYFDYWGQGTLVTVSSQAVLTQPPSASGTPGQRVTISCSGSRPNVASNSVNWYQQFPGTAPRLLIYSDNQRPSGVPDRFSGSKSGTSASLAISGLQFEDEADYYCETWDDSLRGVVFGGGTKVTVL
notes: as for B1

The target in the assay is T1, full-length CD25. In words: Octet biolayer interferometry, human IgG1 against CD25.
As a reminder, the Kd is the free concentration of one partner at which half of the binding sites on the other are occupied at equilibrium, for simple one-to-one binding. Lower therefore signals higher affinity. Molecule B1 showed a Kd of 12.1 nM.

B2 had a Kd of 3.86 nM. In the case of B3 it was 15.3 nM; in that of B4, 9.1 nM. The result for B5 reads 70.4 nM. Take B6: binding was characterised by a dissociation constant (Kd) of 25.7 nM. Consider B7, for which the affinity, expressed as Kd, was 65.6 nM. The result for B8 reads 54.5 nM; that for B9, 57.8 nM. The result for B10 reads 8.3 nM; that for B11, 9.55 nM; that for B12, 12.4 nM. The result for B13 reads 20.2 nM; that for B14, 31.9 nM. For B15, the dissociation constant (Kd) amounted to 13.7 nM. The result for B16 reads 10.6 nM; that for B17, 16.1 nM.
